Results reported in PMC7388177 (Cell reports, 2020).
Positions count from the first letter of the chain named. Names and notes keep the numbering of the source.

What was measured:
[1] = biological target: T1, human ATG9A, purified in LMNG (mVenus-His tag cleaved) (human), Q7Z3C6; test: negative-stain EM; settings: remark: other sources report otherwise
T1 chain: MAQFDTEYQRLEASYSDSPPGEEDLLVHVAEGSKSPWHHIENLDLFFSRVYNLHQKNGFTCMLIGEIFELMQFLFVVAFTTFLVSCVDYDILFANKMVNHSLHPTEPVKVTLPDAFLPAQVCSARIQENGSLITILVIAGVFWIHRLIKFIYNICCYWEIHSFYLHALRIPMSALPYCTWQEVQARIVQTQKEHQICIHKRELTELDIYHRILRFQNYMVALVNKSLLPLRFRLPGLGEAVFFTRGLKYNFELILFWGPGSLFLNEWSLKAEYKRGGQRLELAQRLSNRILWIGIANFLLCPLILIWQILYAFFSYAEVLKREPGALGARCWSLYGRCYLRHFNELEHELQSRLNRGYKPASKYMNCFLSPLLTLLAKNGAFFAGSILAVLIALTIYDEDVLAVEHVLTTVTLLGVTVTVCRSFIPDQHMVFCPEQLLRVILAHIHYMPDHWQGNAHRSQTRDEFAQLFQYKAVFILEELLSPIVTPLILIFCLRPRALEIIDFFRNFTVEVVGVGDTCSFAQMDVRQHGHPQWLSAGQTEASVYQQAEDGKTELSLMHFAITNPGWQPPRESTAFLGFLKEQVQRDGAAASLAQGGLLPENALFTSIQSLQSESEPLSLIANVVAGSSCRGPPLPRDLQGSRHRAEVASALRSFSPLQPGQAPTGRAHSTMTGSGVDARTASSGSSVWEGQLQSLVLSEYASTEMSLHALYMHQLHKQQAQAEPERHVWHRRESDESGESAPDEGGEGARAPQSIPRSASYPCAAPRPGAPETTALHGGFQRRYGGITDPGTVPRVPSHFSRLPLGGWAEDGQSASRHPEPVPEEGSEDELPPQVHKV

[2] = biological target: the molecule itself; test: cross-linking
[3] = biological target: T2, ATG9A-mVenus fusion protein in membranes (human), Q7Z3C6; test: cross-linking; settings: remark: other sources report otherwise
T2 chain: T1 chain

[4] = biological target: T3, endogenous ATG9A of HeLa cells (human (endogenous in HeLa)), Q7Z3C6; test: cross-linking; settings: remark: other sources report otherwise
T3 chain: T1 chain

B1: human ATG9A, purified in LMNG (mVenus-His tag cleaved), Q7Z3C6 1-839 (natural protein)
chain: T1 chain
How did the stoichiometry N [1] turn out when B1 was run?
Its stoichiometry N is 3.

B2: ATG9A-mVenus (F68C + N379C) (natural protein, human, UniProt Q7Z3C6 1-839, looked up)
chain: T1 chain with F68C, N379C
How did the “stoichiometry N” value [2] turn out when B2 was run?
The value was 3.

B3: ATG9A-mVenus fusion protein in membranes, Q7Z3C6 1-839 (natural protein)
chain: T1 chain
Which stoichiometry N [3] does the source give for B3 here?
The stoichiometry N was 3.

B4: ATG9A-mVenus (N57C + P371C) (natural protein, human, UniProt Q7Z3C6 1-839, looked up)
chain: T1 chain with N57C, P371C
B4 was tested. Which “stoichiometry N” value [2] did it give?
The value was 3.

B5: endogenous ATG9A of HeLa cells, Q7Z3C6 1-839 (natural protein)
chain: T1 chain
B5 was tested. Which stoichiometry N [4] did it give?
The stoichiometry N was 3.
